Results published in PMC2171497.

Target: 2′,3′-cyclic nucleotide 3′-phosphodiesterase (CNP), endogenous, rat (rat (endogenous in cultured rat OLs and rat brain)) (UniProt P13233)
Assay: co-IP

UniProt P13233, sequence (P13233 whole entry): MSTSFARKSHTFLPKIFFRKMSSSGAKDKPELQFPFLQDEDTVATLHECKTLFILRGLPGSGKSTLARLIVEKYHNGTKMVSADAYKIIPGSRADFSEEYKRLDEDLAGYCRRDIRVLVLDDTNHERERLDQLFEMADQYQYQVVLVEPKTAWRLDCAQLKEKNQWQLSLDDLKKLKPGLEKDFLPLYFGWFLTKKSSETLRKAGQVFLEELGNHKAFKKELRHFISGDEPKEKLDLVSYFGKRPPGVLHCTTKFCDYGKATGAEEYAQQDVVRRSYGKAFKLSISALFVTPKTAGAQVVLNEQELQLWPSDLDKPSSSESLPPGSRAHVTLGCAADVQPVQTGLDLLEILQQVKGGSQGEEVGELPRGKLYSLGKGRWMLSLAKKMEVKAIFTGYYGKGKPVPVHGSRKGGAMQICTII

stoichiometry N: 1
Substance: tubulin (α- and β-tubulin), endogenous, rat (from UniProt P68370 1-451; Q3KRE8 1-445) (complex)
